Assay results taken from patent JP2014141434A (dated 2014).

What was measured:
[1] = molecular target: T1, N末端FLAG−tag付加型ヒトROBO4細胞外領域ドメイン欠損体 hROBO4−210 (human, UniProt Q8WZ75 210-1007); experiment: flow cytometry, transfected HEK293 cells
T1 construct: On HEK293 cells; also called pCI−FLAG−hROBO4−210; pCI−hROBO4−210
T1 sequence: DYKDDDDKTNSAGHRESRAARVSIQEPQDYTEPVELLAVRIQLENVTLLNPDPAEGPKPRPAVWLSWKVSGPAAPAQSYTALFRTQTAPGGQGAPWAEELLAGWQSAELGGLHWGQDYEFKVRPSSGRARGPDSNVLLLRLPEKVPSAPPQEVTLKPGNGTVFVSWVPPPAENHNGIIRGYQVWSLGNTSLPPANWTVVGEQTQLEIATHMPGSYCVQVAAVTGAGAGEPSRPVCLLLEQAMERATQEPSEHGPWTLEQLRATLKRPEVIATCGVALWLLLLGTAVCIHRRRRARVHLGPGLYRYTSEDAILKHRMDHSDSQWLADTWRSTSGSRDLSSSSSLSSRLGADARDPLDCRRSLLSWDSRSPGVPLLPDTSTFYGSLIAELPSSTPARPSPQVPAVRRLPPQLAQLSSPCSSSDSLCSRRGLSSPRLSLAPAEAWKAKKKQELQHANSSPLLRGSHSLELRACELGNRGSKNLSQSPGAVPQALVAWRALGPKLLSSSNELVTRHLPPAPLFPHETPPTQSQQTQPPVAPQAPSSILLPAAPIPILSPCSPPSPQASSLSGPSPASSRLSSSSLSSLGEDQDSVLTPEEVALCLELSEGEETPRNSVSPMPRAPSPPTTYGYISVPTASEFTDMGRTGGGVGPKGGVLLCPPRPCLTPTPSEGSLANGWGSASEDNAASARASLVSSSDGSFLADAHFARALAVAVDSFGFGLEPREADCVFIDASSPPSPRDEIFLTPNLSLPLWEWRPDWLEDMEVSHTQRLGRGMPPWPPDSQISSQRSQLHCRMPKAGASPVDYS

[2] = molecular target: T2, N末端FLAG−tag付加型ヒトROBO4細胞外領域ドメイン欠損体 hROBO4−341 (human, UniProt Q8WZ75 341-1007); experiment: flow cytometry, transfected HEK293 cells
T2 construct: On HEK293 cells; also called pCI−FLAG−hROBO4−341; pCI−hROBO4−341
T2 sequence: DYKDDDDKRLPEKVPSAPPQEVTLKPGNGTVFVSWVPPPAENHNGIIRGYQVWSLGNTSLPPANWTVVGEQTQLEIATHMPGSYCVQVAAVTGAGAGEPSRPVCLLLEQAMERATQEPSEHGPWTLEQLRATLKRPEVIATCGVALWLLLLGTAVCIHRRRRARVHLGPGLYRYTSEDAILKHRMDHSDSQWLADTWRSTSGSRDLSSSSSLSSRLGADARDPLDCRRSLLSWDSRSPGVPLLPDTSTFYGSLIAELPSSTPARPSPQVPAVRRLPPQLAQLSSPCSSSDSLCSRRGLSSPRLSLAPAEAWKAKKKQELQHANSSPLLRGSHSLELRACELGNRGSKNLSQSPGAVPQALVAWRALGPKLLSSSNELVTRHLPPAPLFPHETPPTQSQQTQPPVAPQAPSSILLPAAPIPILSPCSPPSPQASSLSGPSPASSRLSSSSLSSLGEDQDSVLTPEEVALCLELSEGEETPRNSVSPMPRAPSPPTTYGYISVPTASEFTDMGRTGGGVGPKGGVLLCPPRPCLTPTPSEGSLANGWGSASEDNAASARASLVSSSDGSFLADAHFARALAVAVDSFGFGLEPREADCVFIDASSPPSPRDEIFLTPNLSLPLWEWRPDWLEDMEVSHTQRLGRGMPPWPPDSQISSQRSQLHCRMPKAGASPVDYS

B1: 抗ROBO4マウスモノクローナル抗体 MAb1 (antibody, V domains shown)
VH: EVQLVESGGGLVKPGGSLKLSCAASGFTFSTYAMSWVRQTPEKRLEWVATISNGGTYTYYPDSVKGRFTISRDNAENTLYLQMSSLRSEDTAMYFCARLIYYDYLDYWGHGTTLTVSS
VL: DAVMTQTPLSLPVSLGDQASISCRSSQSLENSNGNTYLNWYFQKPGQSPQLLIYRVSNRFSGVLDRFSGSGSGTDFTLKISRVEAEDFGVYFCLQVTHVPWTFGGGTKLEIKR
notes: Mouse IgG1 (gamma 1) / kappa from a hybridoma; The constant regions are not in the listing; also called MAb1
B1: no binding (tested: 10 μg/mL) [1]; no binding (tested: 10 μg/mL) [2].
